The source of these data is publication PMC5179001.

In this data set the test system is RovA (Yersinia pseudotuberculosis (YPIII?)). As to the kind of experiment: EMSA. The following applies: […]) at 25 C or 37 C, buffer. On the technique in general: A gel shift assay detects complexes by their altered migration in electrophoresis.

For the substance “rovA promoter fragment BS I (activating site)”, the K half came to 6.01 nM.

As for “rovA promoter fragment BS II (repressing site)”, the K half was 40.7 nM.
